These results are taken from patent publication US20240101716A1.

Assay [1] deals with SIRP-α expressed on cells (UniProt P78324). In words: FACS binding test on SIRP-a cell line, Geom.Mean; unit from the axis log(nm).
Assay [2] addresses SIRPα (blocking assay of Example 11) (UniProt P78324). As to the kind of experiment: blocking of the CD47/SIRPα interaction, ratio 665 nm/615 nm against antibody concentration.
Assay [3] deals with SIRPα-His protein (UniProt P78324). As to the kind of experiment: competition ELISA, SIRPα-His binding to coated CD47-Fc. (In general: In an ELISA, binding on a coated surface is turned into a signal by an enzyme label.)
The target of assay [4] is recombinant human SIRPα variant 1 protein (human) (UniProt P78324). As to the kind of experiment: SPR Biacore 8K, antibody captured, antigen analyte.
For assay [5], the target named is SIRPα-His protein (UniProt P78324). As to the kind of experiment: competition ELISA: SIRPα-His binding to coated CD47-Fc in the presence of the antibody, OD450.
In assay [6] the target is recombinant human SIRPα variant 1 protein (human) (UniProt P78324). In words: ELISA on coated recombinant human SIRPα v1, OD450.

recombinant human SIRPα variant 1 protein (human), sequence (P78324 31-370, change not shown): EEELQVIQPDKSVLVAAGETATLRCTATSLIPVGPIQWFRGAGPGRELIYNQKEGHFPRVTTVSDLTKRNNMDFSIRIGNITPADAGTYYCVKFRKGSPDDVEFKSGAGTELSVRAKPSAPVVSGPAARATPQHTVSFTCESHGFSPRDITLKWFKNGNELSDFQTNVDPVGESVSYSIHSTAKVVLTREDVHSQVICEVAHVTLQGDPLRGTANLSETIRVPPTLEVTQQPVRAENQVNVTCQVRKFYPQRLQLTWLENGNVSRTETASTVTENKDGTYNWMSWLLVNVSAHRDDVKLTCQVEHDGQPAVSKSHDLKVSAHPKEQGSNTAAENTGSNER

B1: HSP210-02-hz52 (antibody, V domains shown)
VH: QVQLVQSGAEVKKPGASVKVSCKASGFNFEDTYMHWVRQAPGQGLEWMGRIDPADADTKYNPKFQDRVTITVDTSTNTAYMELSSLRSEDTAVYYCVRGNYVNWGQGTTVTVSS
VL: EIVLTQSPGTLSLSPGERATLSCRASSSVSSSYLYWYQQKPGQAPRLLIYSTSNLASGIPDRFSGSGSGTDYTLTISRLEPEDAAVYFCHQWYSYPRTFGGGTKVEIK
In turn, B1 showed an EC50 in assay [1] of 0.54 nM. In assay [2], the IC50 (read off the curve) is 0.1 nM. Moreover, in the assay with SIRPα-His protein [3], the IC50 came to 0.11 nM. Also, in assay [4], the Kd came to 0.423 nM, the koff is 0.000298 s⁻¹ and the kon is 704000 M⁻¹ s⁻¹.

B2: HSP210-02-hz22 (antibody, V domains shown)
VH: QVQLVQSGAEVKKPGASVKVSCKASGFNFEDTYMHWVRQAPGQGLEWMGRIDPADGDTKYNPKFQDRVTMTVDTSTNTAYMELSSLRSEDTAVYYCVRGNYVNWGQGTTVTVSS
VL: EIVLTQSPGTLSLSPGERATLSCRASSSVSSSYLYWYQQKPGQAPRLLIYSTSNLASGIPDRFSGSGSGTDYTLTISRLEPEDAAVYFCHQWYSYPRTFGGGTKVEIK
In the assay with SIRPα-His protein [3], B2 returned an IC50 of 0.092 nM.

B3: HSP210-02-hz42 (antibody, V domains shown)
VH: QVQLVQSGAEVKKPGASVKVSCKASGFNFEDTYMHWVRQAPGQGLEWMGRIDPAEGDTKYNPKFQDRVTITVDTSTNTAYMELSSLRSEDTAVYYCVRGNYVNWGQGTTVTVSS
VL: EIVLTQSPGTLSLSPGERATLSCRASSSVSSSYLYWYQQKPGQAPRLLIYSTSNLASGIPDRFSGSGSGTDYTLTISRLEPEDAAVYFCHQWYSYPRTFGGGTKVEIK
The molecule B3 had an IC50 with SIRPα-His protein [3] of 0.12 nM.

B4: HSP210-02-hz32 (antibody, V domains shown)
VH: QVQLVQSGAEVKKPGASVKVSCKASGFNFEDTYMHWVRQAPGQGLEWMGRIDPADGDTKYNPKFQDRVTITVDTSTNTAYMELSSLRSEDTAVYYCVRGNYVNWGQGTTVTVSS
VL: EIVLTQSPGTLSLSPGERATLSCRASSSVSSSYLYWYQQKPGQAPRLLIYSTSNLASGIPDRFSGSGSGTDYTLTISRLEPEDAAVYFCHQWYSYPRTFGGGTKVEIK
B4: the IC50 in the assay with SIRPα-His protein [3] came out at 0.11 nM.

B5: HSP210-01-hz22 (antibody, V domains shown)
VH: QVQLQESGPGLVKPSETLSLTCTFSGFSLNTYDIGMGWIRQPPGKGLEWIGHIWWNDREYYNSALQSRVTISKDTSKTQVSLKLSSVTAADTAVYYCVRIDYFGSGQAWFTYWGQGTLVTVSS
VL: EIVLTQSPGTLSLSPGERATLSCSSSSTISSTYLHWYQQKPGQAPRLLISGTSNLASGIPDRFSGSGSGTDYTLTISRLEPEDVAVYYCQQGSRIPFTFGQGTKLEIK
B5 displayed a 50% inhibitory concentration (IC50) in the assay with SIRPα-His protein [3] of 0.21 nM.

B6: HSP210-01-hz62 (antibody, V domains shown)
VH: QVQLQESGPGLVKPSETLSLTCTFSGFSLNTYDIGMGWIRQPPGKGLEWIAHIWWNDREYYNPALQSRVTISKDTSKTQVSLKLSSVTAADTAVYYCVRIDYFGSGQAWFTYWGQGTLVTVSS
VL: EIVLTQSPGTLSLSPGERATLSCSSSSTISSTYLHWYQQKPGQAPRLLISGTSNLASGIPDRFSGSGSGTDYTLTISRLEPEDVAVYYCQQGSRIPFTFGQGTKLEIK
On to B6, for which, in the assay with SIRPα-His protein [3], the IC50 came out at 0.16 nM.

B7: HSP210-01-hz32 (antibody, V domains shown)
VH: QVQLQESGPGLVKPSETLSLTCTFSGFSLNTYDIGMGWIRQPPGKGLEWIAHIWWNDREYYNSALQSRVTISKDTSKTQVSLKLSSVTAADTAVYYCVRIDYFGSGQAWFTYWGQGTLVTVSS
VL: EIVLTQSPGTLSLSPGERATLSCSSSSTISSTYLHWYQQKPGQAPRLLISGTSNLASGIPDRFSGSGSGTDYTLTISRLEPEDVAVYYCQQGSRIPFTFGQGTKLEIK
The molecule B7 returned an IC50 in the assay with SIRPα-His protein [3] of 0.16 nM.

B8: HSP210-01-hz61 (antibody, V domains shown)
VH: QVQLQESGPGLVKPSETLSLTCTFSGFSLNTYDIGMGWIRQPPGKGLEWIAHIWWNDREYYNPALQSRVTISKDTSKTQVSLKLSSVTAADTAVYYCVRIDYFGSGQAWFTYWGQGTLVTVSS
VL: EIVLTQSPGTLSLSPGERATLSCSSSSTISSTYLHWYQQKPGQAPRLLIYGTSNLASGIPDRFSGSGSGTDFTLTISRLEPEDFAVYYCQQGSRIPFTFGQGTKLEIK
B8 had an IC50 with SIRPα-His protein [3] of 0.21 nM.

B9: HSP210-01-hz52 (antibody, V domains shown)
VH: QVQLQESGPGLVKPSETLSLTCTFSGFSLNTYDIGMGWIRQPPGKGLEWIAHIWWNDREYYSSALQSRVTISKDTSKTQVSLKLSSVTAADTAVYYCVRIDYFGSGQAWFTYWGQGTLVTVSS
VL: EIVLTQSPGTLSLSPGERATLSCSSSSTISSTYLHWYQQKPGQAPRLLISGTSNLASGIPDRFSGSGSGTDYTLTISRLEPEDVAVYYCQQGSRIPFTFGQGTKLEIK
Molecule B9 showed an IC50 in the assay with SIRPα-His protein [3] of 0.23 nM.

B10: 300A6A6 (antibody, V domains shown)
VH: QVQLQQSGTELVKPGSSVKISCKASGYTFTSNYIHWIRQQPGNGLEWIGWIYPGDGDTNYNQKFNGKATLTADKSSSTAYMQLSSLTSEDYAVYFCAINYGGIWFAYWGQGTLVTVSS
VL: DIQMTQSPSSMSASLGDRVTITCQASQDIGNKLIWFQQKPGKSPRLMIHYVTNLPGGVPLRFSGSRSGSDYSLTISSLESEDMADYYCLQYKQNPLTFGSGTKLEIK
For B10, in the assay with SIRPα-His protein [5], the IC50 stood at 0.383 µg/mL. Further, in assay [4], the Kd came out at 1.13 nM, the koff worked out at 0.000148 s⁻¹ and the kon came out at 131000 M⁻¹ s⁻¹. Moreover, the EC50 in assay [6] amounted to 0.0121 µg/mL.

B11: HSP210-03-Chi (antibody, V domains shown)
VH: QVQLQQSGTELVKPGSSVKISCKASGYTFTSNYIHWIRQQPGNGLEWIGWIYPGDGDTNYNQKFNGKATLTADKSSSTAYMQLSSLTSEDYAVYFCAINYGGIWFAYWGQGTLVTVSS
VL: DIQMTQSPSSMSASLGDRVTITCQASQDIGNKLIWFQQKPGKSPRLMIHYVTNLPGGVPLRFSGSRSGSDYSLTISSLESEDMADYYCLQYKQNPLTFGSGTKLEIK
In the assay with SIRPα-His protein [3], B11 came in with an IC50 of 0.14 nM.

B12: 248G3F6 (antibody, V domains shown)
VH: EVQLQQSGAELVKPGASVKLSCTASGFNFEDTYMHWVKQRPDQGLEWIGRIDPADGDTKYNPKFQDKATITVDTSSNTAYLQLSSLTSEDTAVYYCVRGNYVNWGQGTTLTVSS
VL: QIVLIQSPAIMSASPGERVTLTCRASSSVSSSYLYWYQQKPGSSPKLWIYSTSNLASGVPARFSGSGSGTSYSLTISSMEAEDAASYFCHQWYSYPRTFGGGTKLEIK
For the molecule B12, the IC50 in the assay with SIRPα-His protein [5] worked out at 0.356 µg/mL. Also, in assay [4], the Kd turned out to be 2 nM, the koff was 0.000374 s⁻¹ and the on-rate constant (kon) stood at 187000 M⁻¹ s⁻¹. Besides, the EC50 in assay [6] amounted to 0.0182 µg/mL.

B13: HSP210-02-Chi (antibody, V domains shown)
VH: EVQLQQSGAELVKPGASVKLSCTASGFNFEDTYMHWVKQRPDQGLEWIGRIDPADGDTKYNPKFQDKATITVDTSSNTAYLQLSSLTSEDTAVYYCVRGNYVNWGQGTTLTVSS
VL: QIVLIQSPAIMSASPGERVTLTCRASSSVSSSYLYWYQQKPGSSPKLWIYSTSNLASGVPARFSGSGSGTSYSLTISSMEAEDAASYFCHQWYSYPRTFGGGTKLEIK
Molecule B13 yielded an IC50 with SIRPα-His protein [3] of 0.14 nM.

B14: HSP210-03-hz51 (antibody, V domains shown)
VH: QVQLVQSGAEVKKPGSSVKVSCKASGYTFTSNYIHWVRQAPGQGLEWMGWIYPGDADTNYNQKFNGRVTLTADKSTSTAYMELSSLRSEDTAVYYCAINYGGIWFAYWGQGTLVTVSS
VL: DIQMTQSPSSLSASVGDRVTITCQASQDIGNKLIWYQQKPGKAPKLLIYYVTNLPGGVPSRFSGSGSGTDFTLTISSLQPEDFATYYCLQYKQNPLTFGQGTKLEIK
B14 gave an EC50 in assay [1] of 0.417 nM. The IC50 (read off the curve) in assay [2] was 0.1 nM. For the same molecule, in assay [4], the Kd turned out to be 0.999 nM, the koff came out at 0.000804 s⁻¹ and the kon was determined as 805000 M⁻¹ s⁻¹.

B15: HSP210-03-hz32 (antibody, V domains shown)
VH: QVQLVQSGAEVKKPGSSVKVSCKASGYTFTSNYIHWVRQAPGQGLEWMGWIYPGDGDTNYNQKFNGRVTLTADKSTSTAYMELSSLRSEDTAVYYCAINYGGIWFAYWGQGTLVTVSS
VL: DIQMTQSPSSLSASVGDRVTITCQASQDIGNKLIWFQQKPGKAPKLLIHYVTNLPGGVPSRFSGSRSGSDYTLTISSLQPEDFATYYCLQYKQNPLTFGQGTKLEIK
In the case of B15, in the assay with SIRPα-His protein [3], the IC50 is 0.145 nM.

B16: HSP210-03-hz22 (antibody, V domains shown)
VH: QVQLVQSGAEVKKPGSSVKVSCKASGYTFTSNYIHWVRQAPGQGLEWMGWIYPGDGDTNYNQKFNGRVTITADKSTSTAYMELSSLRSEDTAVYYCAINYGGIWFAYWGQGTLVTVSS
VL: DIQMTQSPSSLSASVGDRVTITCQASQDIGNKLIWFQQKPGKAPKLLIHYVTNLPGGVPSRFSGSRSGSDYTLTISSLQPEDFATYYCLQYKQNPLTFGQGTKLEIK
In turn, B16 showed an IC50 with SIRPα-His protein [3] of 0.16 nM.

B17: HSP210-03-hz42 (antibody, V domains shown)
VH: QVQLVQSGAEVKKPGSSVKVSCKASGYTFTSNYIHWVRQAPGQGLEWMGWIYPGEGDTNYNQKFNGRVTLTADKSTSTAYMELSSLRSEDTAVYYCAINYGGIWFAYWGQGTLVTVSS
VL: DIQMTQSPSSLSASVGDRVTITCQASQDIGNKLIWFQQKPGKAPKLLIHYVTNLPGGVPSRFSGSRSGSDYTLTISSLQPEDFATYYCLQYKQNPLTFGQGTKLEIK
As to B17, in the assay with SIRPα-His protein [3], the 50% inhibitory concentration (IC50) worked out at 0.13 nM.

B18: HSP210-03-hz52 (antibody, V domains shown)
VH: QVQLVQSGAEVKKPGSSVKVSCKASGYTFTSNYIHWVRQAPGQGLEWMGWIYPGDADTNYNQKFNGRVTLTADKSTSTAYMELSSLRSEDTAVYYCAINYGGIWFAYWGQGTLVTVSS
VL: DIQMTQSPSSLSASVGDRVTITCQASQDIGNKLIWFQQKPGKAPKLLIHYVTNLPGGVPSRFSGSRSGSDYTLTISSLQPEDFATYYCLQYKQNPLTFGQGTKLEIK
Regarding B18, the IC50 in the assay with SIRPα-His protein [3] is 0.13 nM.

For orientation: EC50 means the concentration needed to bring the measured effect to its halfway point. As usually defined, the IC50 is the concentration that gives 50% inhibition. In general, Kd refers to the concentration at which binding is half-saturated. As a reminder, the koff is the first-order rate constant of dissociation. For orientation: kon means the rate constant with which the complex forms.
